# Source: patent US20250171562A1
# Target: mixture of three Der p 2 specific recombinant human IgE clones H10, H12, P4E (human) (UniProt P01854)
# Experiment: RBL-SX38 IgE displacement, FACS
# Sequence of mixture of three Der p 2 specific recombinant human IgE clones H10, H12, P4E (human) (P01854 other isoform, or with tags, fused parts or gaps): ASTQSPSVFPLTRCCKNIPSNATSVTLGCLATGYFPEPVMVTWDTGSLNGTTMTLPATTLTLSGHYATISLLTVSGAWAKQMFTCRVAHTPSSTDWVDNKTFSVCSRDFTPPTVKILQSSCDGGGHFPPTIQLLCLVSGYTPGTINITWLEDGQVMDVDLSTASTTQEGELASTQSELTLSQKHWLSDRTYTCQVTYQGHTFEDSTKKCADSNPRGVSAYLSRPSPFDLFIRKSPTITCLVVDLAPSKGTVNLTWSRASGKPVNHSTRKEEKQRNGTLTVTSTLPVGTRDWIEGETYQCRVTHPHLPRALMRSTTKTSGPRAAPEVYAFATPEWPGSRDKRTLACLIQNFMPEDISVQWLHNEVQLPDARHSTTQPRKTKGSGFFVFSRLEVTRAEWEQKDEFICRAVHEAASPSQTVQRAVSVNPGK
row,Max effect/effect 1 µM,Binder
1,94%,NIgG4B3A1(G4S)1 (Fc fusion) chain 1: DVQLQESGGGLVQAGGSLRLSCAASGFIFRLAGMSWVRQAPGKGFEWVSGITMDGSTTNYADSVKGRFTISRDNSKNRLYLQMNSLKPEDTAVYYCARGAKGGYNDPRGQGTQVTVSGGGGSGPPCPPCPAPEFLGGPSVFLFPPKPKDTLMISRTPEVTCVVVDVSQEDPEVQFNWYVDGVEVHNAKTKPREEQFNSTYRVVSVLTVLHQDWLNGKEYKCKVSNKGLPSSIEKTISKAKGQPREPQVYTLPPCQEEMTKNQVSLWCLVKGFYPSDIAVEWESNGQPENNYKTTPPVLDSDGSFFLYSRLTVDKSRWQEGNVFSCSVMHEALHNHYTQKSLSLSLGK chain 2: EVQLLESGGGLVQPGGSLRLSCAASGFTFGNYDMAWVRQAPGKRPEWVSSIDTGGDITHYADSVKGRFTISRDNAKNTLYLQMNSLRPEDTAVYWCATDEEYALGPNEFDYYGQGTLVTVSSGGGGSGPPCPPCPAPEFLGGPSVFLFPPKPKDTLMISRTPEVTCVVVDVSQEDPEVQFNWYVDGVEVHNAKTKPREEQFNSTYRVVSVLTVLHQDWLNGKEYKCKVSNKGLPSSIEKTISKAKGQPREPQVCTLPPSQEEMTKNQVSLSCAVKGFYPSDIAVEWESNGQPENNYKTTPPVLDSDGSFFLVSRLTVDKSRWQEGNVFSCSVMHEALHNHYTQKSLSLSLGK
2,1%,CIgG4B3A1(RS) (Fc fusion) chain 1: GPPCPPCPAPEFLGGPSVFLFPPKPKDTLMISRTPEVTCVVVDVSQEDPEVQFNWYVDGVEVHNAKTKPREEQFNSTYRVVSVLTVLHQDWLNGKEYKCKVSNKGLPSSIEKTISKAKGQPREPQVYTLPPCQEEMTKNQVSLWCLVKGFYPSDIAVEWESNGQPENNYKTTPPVLDSDGSFFLYSRLTVDKSRWQEGNVFSCSVMHEALHNHYTQKSLSLSLGKRSDVQLQESGGGLVQAGGSLRLSCAASGFIFRLAGMSWVRQAPGKGFEWVSGITMDGSTTNYADSVKGRFTISRDNSKNRLYLQMNSLKPEDTAVYYCARGAKGGYNDPRGQGTQVTVS chain 2: GPPCPPCPAPEFLGGPSVFLFPPKPKDTLMISRTPEVTCVVVDVSQEDPEVQFNWYVDGVEVHNAKTKPREEQFNSTYRVVSVLTVLHQDWLNGKEYKCKVSNKGLPSSIEKTISKAKGQPREPQVCTLPPSQEEMTKNQVSLSCAVKGFYPSDIAVEWESNGQPENNYKTTPPVLDSDGSFFLVSRLTVDKSRWQEGNVFSCSVMHEALHNHYTQKSLSLSLGKRSEVQLLESGGGLVQPGGSLRLSCAASGFTFGNYDMAWVRQAPGKRPEWVSSIDTGGDITHYADSVKGRFTISRDNAKNTLYLQMNSLRPEDTAVYWCATDEEYALGPNEFDYYGQGTLVTVSS
3,28%,CIgG4B3A1(G4S)2 (Fc fusion) chain 1: GPPCPPCPAPEFLGGPSVFLFPPKPKDTLMISRTPEVTCVVVDVSQEDPEVQFNWYVDGVEVHNAKTKPREEQFNSTYRVVSVLTVLHQDWLNGKEYKCKVSNKGLPSSIEKTISKAKGQPREPQVYTLPPCQEEMTKNQVSLWCLVKGFYPSDIAVEWESNGQPENNYKTTPPVLDSDGSFFLYSRLTVDKSRWQEGNVFSCSVMHEALHNHYTQKSLSLSLGKGGGGSGGGGSDVQLQESGGGLVQAGGSLRLSCAASGFIFRLAGMSWVRQAPGKGFEWVSGITMDGSTTNYADSVKGRFTISRDNSKNRLYLQMNSLKPEDTAVYYCARGAKGGYNDPRGQGTQVTVS chain 2: GPPCPPCPAPEFLGGPSVFLFPPKPKDTLMISRTPEVTCVVVDVSQEDPEVQFNWYVDGVEVHNAKTKPREEQFNSTYRVVSVLTVLHQDWLNGKEYKCKVSNKGLPSSIEKTISKAKGQPREPQVCTLPPSQEEMTKNQVSLSCAVKGFYPSDIAVEWESNGQPENNYKTTPPVLDSDGSFFLVSRLTVDKSRWQEGNVFSCSVMHEALHNHYTQKSLSLSLGKGGGGSGGGGSEVQLLESGGGLVQPGGSLRLSCAASGFTFGNYDMAWVRQAPGKRPEWVSSIDTGGDITHYADSVKGRFTISRDNAKNTLYLQMNSLRPEDTAVYWCATDEEYALGPNEFDYYGQGTLVTVSS
4,10%,CIgE4A1A1(GS3) (Fc fusion) chain 1: GPPCPPCPAPEFLGGPSVFLFPPKPKDTLMISRTPEVTCVVVDVSQEDPEVQFNWYVDGVEVHNAKTKPREEQFNSTYRVVSVLTVLHQDWLNGKEYKCKVSNKGLPSSIEKTISKAKGQPREPQVYTLPPCQEEMTKNQVSLWCLVKGFYPSDIAVEWESNGQPENNYKTTPPVLDSDGSFFLYSRLTVDKSRWQEGNVFSCSVMHEALHNHYTQKSLSLSLGKGGGGSGGGGSGGGGSEVQLLESGGGLVQPGGSLRLSCAASGFTFGNYDMAWVRQAPGKRPEWVSSIDTGGDITHYADSVKGRFTISRDNAKNTLYLQMNSLRPEDTAVYWCATDEEYALGPNEFDYYGQGTLVTVSS chain 2: GPPCPPCPAPEFLGGPSVFLFPPKPKDTLMISRTPEVTCVVVDVSQEDPEVQFNWYVDGVEVHNAKTKPREEQFNSTYRVVSVLTVLHQDWLNGKEYKCKVSNKGLPSSIEKTISKAKGQPREPQVCTLPPSQEEMTKNQVSLSCAVKGFYPSDIAVEWESNGQPENNYKTTPPVLDSDGSFFLVSRLTVDKSRWQEGNVFSCSVMHEALHNHYTQKSLSLSLGKGGGGSGGGGSGGGGSEVQLLESGGGLVQPGGSLRLSCAASGFTFGNYDMAWVRQAPGKRPEWVSSIDTGGDITHYADSVKGRFTISRDNAKNTLYLQMNSLRPEDTAVYWCATDEEYALGPNEFDYYGQGTLVTVSS
5,76%,CIgG4B3A1(G4S)3 (Fc fusion) chain 1: GPPCPPCPAPEFLGGPSVFLFPPKPKDTLMISRTPEVTCVVVDVSQEDPEVQFNWYVDGVEVHNAKTKPREEQFNSTYRVVSVLTVLHQDWLNGKEYKCKVSNKGLPSSIEKTISKAKGQPREPQVYTLPPCQEEMTKNQVSLWCLVKGFYPSDIAVEWESNGQPENNYKTTPPVLDSDGSFFLYSRLTVDKSRWQEGNVFSCSVMHEALHNHYTQKSLSLSLGKGGGGSGGGGSGGGGSDVQLQESGGGLVQAGGSLRLSCAASGFIFRLAGMSWVRQAPGKGFEWVSGITMDGSTTNYADSVKGRFTISRDNSKNRLYLQMNSLKPEDTAVYYCARGAKGGYNDPRGQGTQVTVS chain 2: GPPCPPCPAPEFLGGPSVFLFPPKPKDTLMISRTPEVTCVVVDVSQEDPEVQFNWYVDGVEVHNAKTKPREEQFNSTYRVVSVLTVLHQDWLNGKEYKCKVSNKGLPSSIEKTISKAKGQPREPQVCTLPPSQEEMTKNQVSLSCAVKGFYPSDIAVEWESNGQPENNYKTTPPVLDSDGSFFLVSRLTVDKSRWQEGNVFSCSVMHEALHNHYTQKSLSLSLGKGGGGSGGGGSGGGGSEVQLLESGGGLVQPGGSLRLSCAASGFTFGNYDMAWVRQAPGKRPEWVSSIDTGGDITHYADSVKGRFTISRDNAKNTLYLQMNSLRPEDTAVYWCATDEEYALGPNEFDYYGQGTLVTVSS
6,12%,CIgG4B3A1(G4S)1 (Fc fusion) chain 1: GPPCPPCPAPEFLGGPSVFLFPPKPKDTLMISRTPEVTCVVVDVSQEDPEVQFNWYVDGVEVHNAKTKPREEQFNSTYRVVSVLTVLHQDWLNGKEYKCKVSNKGLPSSIEKTISKAKGQPREPQVYTLPPCQEEMTKNQVSLWCLVKGFYPSDIAVEWESNGQPENNYKTTPPVLDSDGSFFLYSRLTVDKSRWQEGNVFSCSVMHEALHNHYTQKSLSLSLGKGGGGSDVQLQESGGGLVQAGGSLRLSCAASGFIFRLAGMSWVRQAPGKGFEWVSGITMDGSTTNYADSVKGRFTISRDNSKNRLYLQMNSLKPEDTAVYYCARGAKGGYNDPRGQGTQVTVS chain 2: GPPCPPCPAPEFLGGPSVFLFPPKPKDTLMISRTPEVTCVVVDVSQEDPEVQFNWYVDGVEVHNAKTKPREEQFNSTYRVVSVLTVLHQDWLNGKEYKCKVSNKGLPSSIEKTISKAKGQPREPQVCTLPPSQEEMTKNQVSLSCAVKGFYPSDIAVEWESNGQPENNYKTTPPVLDSDGSFFLVSRLTVDKSRWQEGNVFSCSVMHEALHNHYTQKSLSLSLGKGGGGSEVQLLESGGGLVQPGGSLRLSCAASGFTFGNYDMAWVRQAPGKRPEWVSSIDTGGDITHYADSVKGRFTISRDNAKNTLYLQMNSLRPEDTAVYWCATDEEYALGPNEFDYYGQGTLVTVSS
7,94%,NIgG4B3A1(RS) (Fc fusion) chain 1: DVQLQESGGGLVQAGGSLRLSCAASGFIFRLAGMSWVRQAPGKGFEWVSGITMDGSTTNYADSVKGRFTISRDNSKNRLYLQMNSLKPEDTAVYYCARGAKGGYNDPRGQGTQVTVSRSGPPCPPCPAPEFLGGPSVFLFPPKPKDTLMISRTPEVTCVVVDVSQEDPEVQFNWYVDGVEVHNAKTKPREEQFNSTYRVVSVLTVLHQDWLNGKEYKCKVSNKGLPSSIEKTISKAKGQPREPQVYTLPPCQEEMTKNQVSLWCLVKGFYPSDIAVEWESNGQPENNYKTTPPVLDSDGSFFLYSRLTVDKSRWQEGNVFSCSVMHEALHNHYTQKSLSLSLGK chain 2: EVQLLESGGGLVQPGGSLRLSCAASGFTFGNYDMAWVRQAPGKRPEWVSSIDTGGDITHYADSVKGRFTISRDNAKNTLYLQMNSLRPEDTAVYWCATDEEYALGPNEFDYYGQGTLVTVSSRSGPPCPPCPAPEFLGGPSVFLFPPKPKDTLMISRTPEVTCVVVDVSQEDPEVQFNWYVDGVEVHNAKTKPREEQFNSTYRVVSVLTVLHQDWLNGKEYKCKVSNKGLPSSIEKTISKAKGQPREPQVCTLPPSQEEMTKNQVSLSCAVKGFYPSDIAVEWESNGQPENNYKTTPPVLDSDGSFFLVSRLTVDKSRWQEGNVFSCSVMHEALHNHYTQKSLSLSLGK
8,94%,NIgG4B3A1(G4S)2 (Fc fusion) chain 1: DVQLQESGGGLVQAGGSLRLSCAASGFIFRLAGMSWVRQAPGKGFEWVSGITMDGSTTNYADSVKGRFTISRDNSKNRLYLQMNSLKPEDTAVYYCARGAKGGYNDPRGQGTQVTVSGGGGSGGGGSGPPCPPCPAPEFLGGPSVFLFPPKPKDTLMISRTPEVTCVVVDVSQEDPEVQFNWYVDGVEVHNAKTKPREEQFNSTYRVVSVLTVLHQDWLNGKEYKCKVSNKGLPSSIEKTISKAKGQPREPQVYTLPPCQEEMTKNQVSLWCLVKGFYPSDIAVEWESNGQPENNYKTTPPVLDSDGSFFLYSRLTVDKSRWQEGNVFSCSVMHEALHNHYTQKSLSLSLGK chain 2: EVQLLESGGGLVQPGGSLRLSCAASGFTFGNYDMAWVRQAPGKRPEWVSSIDTGGDITHYADSVKGRFTISRDNAKNTLYLQMNSLRPEDTAVYWCATDEEYALGPNEFDYYGQGTLVTVSSGGGGSGGGGSGPPCPPCPAPEFLGGPSVFLFPPKPKDTLMISRTPEVTCVVVDVSQEDPEVQFNWYVDGVEVHNAKTKPREEQFNSTYRVVSVLTVLHQDWLNGKEYKCKVSNKGLPSSIEKTISKAKGQPREPQVCTLPPSQEEMTKNQVSLSCAVKGFYPSDIAVEWESNGQPENNYKTTPPVLDSDGSFFLVSRLTVDKSRWQEGNVFSCSVMHEALHNHYTQKSLSLSLGK
